According to US20080274976A1 (UNIVERSITY OF UTAH RESEARCH FOUNDATION, published 2008):
Where “and” joins values, the source holds several entries; their conditions need not be identical. Equal entries are not always repeated.

B1: Shaker-Δ6-46 K+ channel (other)
chain: MAAVALREQQLQRNSLDGYGSLPKLSSQDEEGGAGHGFGGGPQHFEPIPHDHDFCERVVINVSGLRFETQLRTLNQFPDTLLGDPARRLRYFDPLRNEYFFDRSRPSFDAILYYYQSGGRLRRPVNVPLDVFSEEIKFYELGDQAINKFREDEGFIKEEERPLPDNEKQRKVWLLFEYPESSQAARVVAIISVFVILLSIVIFCLETLPEFKHYKVFNTTTNGTKIEEDEVPDITDPFFLIETLCIIWFTFELTVRFLACPNKLNFCRDVMNVIDIIAIIPYFITLATVVAEEEDTLNLPKAPVSPQDKSSNQAMSLAILRVIRLVRVFRIFKLSRHSKGLQILGRTLKASMRELGLLIFFLFIGVVLFSSAVYFAEAGSENSFFKSIPDAFWWAVVTMTTVGYGDMTPVGVWGKIVGSLCAIAGVLTIALPVPVIVSNFNYFYHRETDQEEMQSQNFNHVTSCPYLPGTLGQHMKKSSLSESSSDMMDLDDGVESTPGLTETHPGRSAVAPFLGAQQQQQQPVASSLSMSIDKQLQHPLQQLTQTQLYQQQQQQQQQQQNGFKQQQQQTQQQLQQQQSHTINASAAAATSGSGSSGLTMRHNNALAVSIETDV
B2: Shaker K+ channel, wild type (other)
chain: MAAVAGLYGLGEDRQHRKKQQQQQQHQKEQLEQKEEQKKIAERKLQLREQQLQRNSLDGYGSLPKLSSQDEEGGAGHGFGGGPQHFEPIPHDHDFCERVVINVSGLRFETQLRTLNQFPDTLLGDPARRLRYFDPLRNEYFFDRSRPSFDAILYYYQSGGRLRRPVNVPLDVFSEEIKFYELGDQAINKFREDEGFIKEEERPLPDNEKQRKVWLLFEYPESSQAARVVAIISVFVILLSIVIFCLETLPEFKHYKVFNTTTNGTKIEEDEVPDITDPFFLIETLCIIWFTFELTVRFLACPNKLNFCRDVMNVIDIIAIIPYFITLATVVAEEEDTLNLPKAPVSPQDKSSNQAMSLAILRVIRLVRVFRIFKLSRHSKGLQILGRTLKASMRELGLLIFFLFIGVVLFSSAVYFAEAGSENSFFKSIPDAFWWAVVTMTTVGYGDMTPVGVWGKIVGSLCAIAGVLTIALPVPVIVSNFNYFYHRETDQEEMQSQNFNHVTSCPYLPGTLGQHMKKSSLSESSSDMMDLDDGVESTPGLTETHPGRSAVAPFLGAQQQQQQPVASSLSMSIDKQLQHPLQQLTQTQLYQQQQQQQQQQQNGFKQQQQQTQQQLQQQQSHTINASAAAATSGSGSSGLTMRHNNALAVSIETDV
notes: whole, on cells

What was measured:
[1] = target: κM-conotoxin RIIIK (Conus radiatus)
[2] = target: κM-conotoxin RIIIK (Conus radiatus); assay: voltage clamp of channels expressed in Xenopus oocytes

Row | Binder | Kd [1] | binding result [2]
1 | B1 | 3330 nM and 1260 nM | –
2 | B2 | – | binds
